Reference: patent US20230242902A1, “A HIGHLY ERROR-PRONE […] R[…] FOR TARGETED CONTINUOUS EVOLUTION IN VIVO” (The Regents of the University of California, priority 2017, published 2023)
Changes are numbered by the printed parent chain. Names and notes keep the numbering of the source.

B1: I311M: TP-DNAP1 variant (protein)
chain: MDYKDKALNDLRNVYADFDSLPLDFRQILIKDRATLLQKEDVEKKILERQEDAKKYAEYLKQSEIPERISLPNIKRHKGVSISFEETSEDMVLEPRPFIFDGLNIRCFRRETIFSLKNKILNMVKESSSFKNVSRQSVSFMYFKIFNKGKVIASTKSVNIYEDKIDERLEDLCNNFDDVLKKIIDVTYGYESLFVSETYSYVIFYAKSIYFPQPRCVNNWGNNIPNILTFDSFKLFTANKNNVSCIKQCSRFLWQKDFNTLEEMIEYKNGNICIVTPQLHINDVRDIKSFNDIRLYSESPIKTFSVIDNTMTYLFYFKEHLGVIFNITKSRHDRRVTKFSPLSKFSDVKNITVCFDIESYFDPEKESNQVNIPFICCASIIYNKVIGNIVDFEGRDCVAQMIEYVVDICGELNISSVELIAHNGGGYDFHYILSSMYNPAAIKNILIRNNSFISFNFAHDGVKFSVKDSYSFLLCSLANASKAFLNEETFKKTDFPHHDLKTADDLYKVYKEWSSVNTEINHVVEKEKLLITSEHIVNFTKNDKSKTLIEWSKDYCRNDVLVLSKVWLEFKNAVEDIFNCELVDQTMTLAGLSYKLFQANMPFDVELRHPNKEDYFNMREALIGGRCISVNGIYKDVLCLDVKSLYPASMAFYDQPYGSFKRVSSRPKDELGIYYVRVTPNRNNKSNFFPIRSHNKITYNNFEESTYIAWYTNVDIDIGLSEGHNIEYIPFDSYGNIGYSWSKKGKIFEKYIKDVLYKLKIKYEKQNNKVKRNVIKIIMNSLWGKFAQKWVNFEYFIKSEDDIDFESEEAYKIWDTDFMLIKKIKESTYSSKPIQNGVFTLSWARYHMKSIWDAGAKEGAECIYSDTDSIFVHKEHFKKNAKFMLNGLKVPIIGSEVGQLELECEFDKLLCAGKKQYMGFYTYFQDGKPCIKEKKRFKGIPSNYIIPELYAHLLSGADKEAKIQFLKFRREWGSVKGYIENKTVKAT
B2: K365N: TP-DNAP1 variant (protein)
chain: B1 chain with M311I, K365N
B3: D407V, S415T: TP-DNAP1 variant (protein)
chain: B1 chain with M311I, D407V, S415T
B4: D407C: TP-DNAP1 variant (protein)
chain: B1 chain with M311I, D407C
B5: V406C: TP-DNAP1 variant (protein)
chain: B1 chain with M311I, V406C
B6: D333T: TP-DNAP1 variant (protein)
chain: B1 chain with M311I, D333T
B7: Y382A: TP-DNAP1 variant (protein)
chain: B1 chain with M311I, Y382A
B8: D407T: TP-DNAP1 variant (protein)
chain: B1 chain with M311I, D407T
B9: D333N, K344R: TP-DNAP1 variant (protein)
chain: B1 chain with M311I, D333N, K344R
B10: D407H: TP-DNAP1 variant (protein)
chain: B1 chain with M311I, D407H
B11: G387H: TP-DNAP1 variant (protein)
chain: B1 chain with M311I, G387H
B12: D333A: TP-DNAP1 variant (protein)
chain: B1 chain with M311I, D333A
B13: D407F: TP-DNAP1 variant (protein)
chain: B1 chain with M311I, D407F
B14: Y382V: TP-DNAP1 variant (protein)
chain: B1 chain with M311I, Y382V
B15: I372C: TP-DNAP1 variant (protein)
chain: B1 chain with M311I, I372C
B16: G410R: TP-DNAP1 variant (protein)
chain: B1 chain with M311I, G410R
B17: D333V: TP-DNAP1 variant (protein)
chain: B1 chain with M311I, D333V
B18: T312Q: TP-DNAP1 variant (protein)
chain: B1 chain with M311I, T312Q
B19: V406Q: TP-DNAP1 variant (protein)
chain: B1 chain with M311I, V406Q
B20: Y313H: TP-DNAP1 variant (protein)
chain: B1 chain with M311I, Y313H
B21: G410H: TP-DNAP1 variant (protein, listed as Kluyveromyces lactis)
chain: B1 chain with M311I, G410H
B22: S330R: TP-DNAP1 variant (protein)
chain: B1 chain with M311I, S330R
B23: D407G: TP-DNAP1 variant (protein)
chain: B1 chain with M311I, D407G
B24: D407A: TP-DNAP1 variant (protein)
chain: B1 chain with M311I, D407A
B25: Y313M: TP-DNAP1 variant (protein)
chain: B1 chain with M311I, Y313M
B26: T312E: TP-DNAP1 variant (protein)
chain: B1 chain with M311I, T312E
B27: G410E: TP-DNAP1 variant (protein)
chain: B1 chain with M311I, G410E
B28: Y313F: TP-DNAP1 variant (protein)
chain: B1 chain with M311I, Y313F
B29: R395P: TP-DNAP1 variant (protein)
chain: B1 chain with M311I, R395P
B30: I287M: TP-DNAP1 variant (protein, listed as Kluyveromyces lactis)
chain: B1 chain with I287M, M311I
B31: G410Q: TP-DNAP1 variant (protein)
chain: B1 chain with M311I, G410Q
B32: D333M: TP-DNAP1 variant (protein)
chain: B1 chain with M311I, D333M
B33: D333N: TP-DNAP1 variant (protein)
chain: B1 chain with M311I, D333N
B34: Y313V: TP-DNAP1 variant (protein)
chain: B1 chain with M311I, Y313V
B35: D407M: TP-DNAP1 variant (protein)
chain: B1 chain with M311I, D407M
B36: Y313W: TP-DNAP1 variant (protein)
chain: B1 chain with M311I, Y313W
B37: Y316R: TP-DNAP1 variant (protein)
chain: B1 chain with M311I, Y316R
B38: V385W: TP-DNAP1 variant (protein)
chain: B1 chain with M311I, V385W
B39: I327Q: TP-DNAP1 variant (protein)
chain: B1 chain with M311I, I327Q

The molecules below were run on p1 (assay: p1 copy number by p1-encoded mKate2 fluorescence). Conditions: OR-Y24, measured in triplicate.
Format: cell-based, S. cerevisiae
Outline: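 Copy number was inferred from p1-encoded mKate2 fluorescence in saturated OR-Y24 cultures (triplicate), calibrated linearly against qPCR of p1 leu2 relative to genomic LEU3.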

Molecule | Mean fold-increase over w.t. (p1 copy number) [fold]
B1 | 2.26
B2 | 1.89
B3 | 1.95
B4 | 2.26
B5 | 2.34
B6 | 2.41
B7 | 1.6
B8 | 3.95
B9 | 2.07
B10 | 2.57
B11 | 1.57
B12 | 1.57
B13 | 2.28
B14 | 1.62
B15 | 1.73
B16 | 2.87
B17 | 2.18
B18 | 2.85
B19 | 2.16
B20 | 3.08

Molecule | Mean fold-increase over w.t. (p1 copy number) [fold]
B21 | 2.19
B22 | 2.21
B23 | 2.53
B24 | 2.25
B25 | 1.94
B26 | 2.29
B27 | 2.37
B28 | 2.11
B29 | 1.91
B30 | 2.39
B31 | 2.2
B32 | 2.6
B33 | 2.07
B34 | 2.48
B35 | 2.71
B36 | 2.15
B37 | 2.46
B38 | 1.41
B39 | 2.15
